± gives the standard deviation of the averaged measurements.

This series has as its system Saccharomyces cerevisiae. In words: protein stability index of tFT-peptide fusion (C-terminal peptide) (PSI (0-1 scale)); higher = more stable (slower turnover). Particulars: temperature: 30 C. As to the method: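 MPS profiling in S. cerevisiae of the yeast C-terminome library: the last 12 aa of each annotated ORF are fused to the C-terminus of a sfGFP-mCherry timer, after a GGGS linker. Cells are FACS-sorted into 8 mCherry/sfGFP bins and deep-sequenced. PSI runs from 0 (unstable) to 1 (stable); wild type and das1Δ backgrounds, two technical replicates each.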

Setting [1] is: genetic background: das1 deletion.

As to “HKGSHFYIQLPI [YAL034C-B C-terminal 12 aa]”, the protein stability index came out at 0.7079 ± 0.0061 under setting [1] and 0.677 ± 0.0077 (genetic background: wild type).

As for HKGSTLDIMSID [QNS1 C-terminal 12 aa], the protein stability index runs as follows: under setting [1], 0.72 ± 0.0096; (genetic background: wild type) 0.667 ± 0.025.

With HKSLKLAKKDKK [AGE1 C-terminal 12 aa], the protein stability index reads like this: under setting [1], 0.6837 ± 0.0037; (genetic background: wild type) 0.738 ± 0.13.

With HKVIAVGRIACQ [SKI7 C-terminal 12 aa], the protein stability index under setting [1] worked out at 0.5897 ± 0.0016 and the protein stability index (genetic background: wild type) worked out at 0.611 ± 0.016.

Turning to HPRLCVFSCMMI [YJR128W C-terminal 12 aa], the protein stability index reads like this: under setting [1], 0.6901 ± 0.0059; (genetic background: wild type) 0.67 ± 0.035.

For the sequence HQVERKAVDIVL [YPR096C C-terminal 12 aa], the protein stability index runs as follows: under setting [1], 0.691 ± 0.016; (genetic background: wild type) 0.712 ± 0.09.

HRDIVSAGSLYL [MTR4 C-terminal 12 aa]: the protein stability index is 0.723 ± 0.034 under setting [1] and 0.7 ± 0.036 (genetic background: wild type).

As for HTSSKEIDLLSF [ENT3 C-terminal 12 aa], the protein stability index runs as follows: under setting [1], 0.721 ± 0.026; (genetic background: wild type) 0.7104 ± 0.0067.

Consider IAAFVVAVLFAF [PRY3 C-terminal 12 aa], for which the protein stability index reads like this: under setting [1], 0.213 ± 0.012; (genetic background: wild type) 0.205 ± 0.012.

ICRVAIWSAERI [CAT5 C-terminal 12 aa]: the protein stability index turned out to be 0.693 ± 0.015 under setting [1] and 0.658 ± 0.034 (genetic background: wild type).

IDDINNDKWLVI [PSK1 C-terminal 12 aa]: the protein stability index is, setting by setting: under setting [1], 0.725 ± 0.001; (genetic background: wild type) 0.688 ± 0.041.

As for IDNPEACEMCSG [RNR1 C-terminal 12 aa], the protein stability index is, setting by setting: under setting [1], 0.702 ± 0.022; (genetic background: wild type) 0.694 ± 0.027.

IEKADIVQQAIR [SLP1 C-terminal 12 aa]: the protein stability index turned out to be 0.691 ± 0.008 under setting [1] and 0.66 ± 0.033 (genetic background: wild type).

With IFKKIRLLLHVN [MCP1 C-terminal 12 aa], the protein stability index reads like this: under setting [1], 0.615 ± 0.013; (genetic background: wild type) 0.2 ± 0.03.

IIFGHDNLWTVR [ALG7 C-terminal 12 aa] returned a protein stability index under setting [1] of 0.742 ± 0.022 and a protein stability index (genetic background: wild type) of 0.767 ± 0.041.

As for IIQSYINLLEEN [NKP2 C-terminal 12 aa], the protein stability index by setting is: under setting [1], 0.708 ± 0.017; (genetic background: wild type) 0.756 ± 0.059.

Consider IKAAIDRVDHSL [YKR018C C-terminal 12 aa], for which the protein stability index is 0.6778 ± 0.0045 under setting [1] and 0.692 ± 0.041 (genetic background: wild type).

On to IKLNKKKVKLST [HHO1 C-terminal 12 aa], for which the protein stability index reads like this: under setting [1], 0.664 ± 0.0086; (genetic background: wild type) 0.6099 ± 0.0033.

Consider IKQRELNAADKC [MAL11 C-terminal 12 aa], for which the protein stability index under setting [1] is 0.696 ± 0.0096 and the protein stability index (genetic background: wild type) was 0.6741 ± 0.0048.

Take IKYNWERCFNGE [YDR521W C-terminal 12 aa]: the protein stability index by setting is: under setting [1], 0.71 ± 0.014; (genetic background: wild type) 0.697 ± 0.04.

The sequence ILLITGFKSSFT [SRL4 C-terminal 12 aa] gave a protein stability index under setting [1] of 0.72 ± 0.018 and a protein stability index (genetic background: wild type) of 0.737 ± 0.038.

In the case of ILNCVGSAKISG [YGR291C C-terminal 12 aa], the protein stability index under setting [1] was 0.668 ± 0.025 and the protein stability index (genetic background: wild type) stood at 0.654 ± 0.02.

ILRQYFTDLASS [REA1 C-terminal 12 aa]: the protein stability index came out at 0.675 ± 0.026 under setting [1] and 0.696 ± 0.041 (genetic background: wild type).

Regarding IMPDRFDYENYY [TMS1 C-terminal 12 aa], the protein stability index worked out at 0.739 ± 0.0052 under setting [1] and 0.698 ± 0.0097 (genetic background: wild type).

INDWLSSWKRSK [CRR1 C-terminal 12 aa] yielded a protein stability index under setting [1] of 0.756 ± 0.017 and a protein stability index (genetic background: wild type) of 0.727 ± 0.021.

Turning to INSQTMTVTTAL [VHC1 C-terminal 12 aa], the protein stability index worked out at 0.685 ± 0.039 under setting [1] and 0.69051 ± 0.00012 (genetic background: wild type).

For IPAYKKHGIQKN [OSH7 C-terminal 12 aa], the protein stability index amounted to 0.694 ± 0.012 under setting [1] and 0.693 ± 0.038 (genetic background: wild type).

Consider IQTINEVRTNYM [RSE1 C-terminal 12 aa], for which the protein stability index by setting is: under setting [1], 0.69 ± 0.041; (genetic background: wild type) 0.744 ± 0.11.

Regarding IRDILKLGHPTR [GYP8 C-terminal 12 aa], the protein stability index amounted to 0.699 ± 0.043 under setting [1] and 0.666 ± 0.034 (genetic background: wild type).

Turning to IREFPEYFAAQA [RPL10 C-terminal 12 aa], the protein stability index by setting is: under setting [1], 0.682 ± 0.015; (genetic background: wild type) 0.671 ± 0.03.

With IRKYGYNLAAYT [YLR462W C-terminal 12 aa], the protein stability index is 0.6649 ± 0.00076 under setting [1] and 0.6563 ± 0.0049 (genetic background: wild type).

Turning to “IRRYPFLWIPFL [YMR316C-B C-terminal 12 aa]”, the protein stability index is, setting by setting: under setting [1], 0.709 ± 0.04; (genetic background: wild type) 0.147 ± 0.015.

Turning to “IRYSMPYRLASN [YLR264C-A C-terminal 12 aa]”, the protein stability index is, setting by setting: under setting [1], 0.6856 ± 0.0022; (genetic background: wild type) 0.648 ± 0.019.

In turn, ISKKVFGNKLHQ [MTM1 C-terminal 12 aa] had a protein stability index under setting [1] of 0.709 ± 0.0014 and a protein stability index (genetic background: wild type) of 0.656 ± 0.022.

As for ISLLSQFVYKGK [EXO1 C-terminal 12 aa], the protein stability index was 0.7 ± 0.016 under setting [1] and 0.678 ± 0.01 (genetic background: wild type).

ISQWREWIDEKL [SRP102 C-terminal 12 aa]: the protein stability index amounted to 0.679 ± 0.025 under setting [1] and 0.72 ± 0.029 (genetic background: wild type).

Take ITKQKALDYHYL [CBS2 C-terminal 12 aa]: the protein stability index by setting is: under setting [1], 0.698 ± 0.0089; (genetic background: wild type) 0.667 ± 0.016.

Regarding ITSKPPATVEWE [GUA1 C-terminal 12 aa], the protein stability index reads like this: under setting [1], 0.695 ± 0.01; (genetic background: wild type) 0.726 ± 0.015.

On to IYKYCCCCFCCC [YCK3 C-terminal 12 aa], for which the protein stability index runs as follows: under setting [1], 0.6598 ± 0.0038; (genetic background: wild type) 0.594 ± 0.046.

As to KALRELQAEMGL [SNF7 C-terminal 12 aa], the protein stability index was 0.696 ± 0.0095 under setting [1] and 0.688 ± 0.025 (genetic background: wild type).

As for KASNGHIELIGE [CRF1 C-terminal 12 aa], the protein stability index runs as follows: under setting [1], 0.674 ± 0.002; (genetic background: wild type) 0.699 ± 0.034.

Turning to KDAFLKELGLQN [PRD1 C-terminal 12 aa], the protein stability index by setting is: under setting [1], 0.69 ± 0.013; (genetic background: wild type) 0.678 ± 0.028.

In the case of KDEVTDDMQLEV [JLP2 C-terminal 12 aa], the protein stability index was 0.6997 ± 0.002 under setting [1] and 0.68 ± 0.03 (genetic background: wild type).

KDSKNGASTLTS [YSW1 C-terminal 12 aa]: the protein stability index is 0.691 ± 0.041 under setting [1] and 0.672 ± 0.018 (genetic background: wild type).

As for KDVETLSVSDEK [SEO1 C-terminal 12 aa], the protein stability index by setting is: under setting [1], 0.686 ± 0.021; (genetic background: wild type) 0.696 ± 0.043.

As to KEALLTRLEHMI [SWC7 C-terminal 12 aa], the protein stability index under setting [1] was found to be 0.682 ± 0.015 and the protein stability index (genetic background: wild type) came out at 0.624 ± 0.011.

On to KEEEGSFNNVIG [PRE2 C-terminal 12 aa], for which the protein stability index is, setting by setting: under setting [1], 0.702 ± 0.012; (genetic background: wild type) 0.66 ± 0.014.

Regarding KEFQNSDIADLY [SGV1 C-terminal 12 aa], the protein stability index runs as follows: under setting [1], 0.714 ± 0.01; (genetic background: wild type) 0.686 ± 0.017.

In the case of KFFLTISADVSF [YNL057W C-terminal 12 aa], the protein stability index reads like this: under setting [1], 0.6369 ± 0.0022; (genetic background: wild type) 0.647 ± 0.03.

Regarding KFRKDEDKSVKQ [TAN1 C-terminal 12 aa], the protein stability index reads like this: under setting [1], 0.68521 ± 0.00053; (genetic background: wild type) 0.702 ± 0.056.

Regarding KGDNITLITSAD [SME1 C-terminal 12 aa], the protein stability index by setting is: under setting [1], 0.688 ± 0.0079; (genetic background: wild type) 0.685 ± 0.099.

As for KHKNYLSFNFTK [YLL065W C-terminal 12 aa], the protein stability index stood at 0.698 ± 0.038 under setting [1] and 0.69 ± 0.012 (genetic background: wild type).

As for KHKSSSYANRDS [DUS3 C-terminal 12 aa], the protein stability index under setting [1] is 0.6941 ± 0.00079 and the protein stability index (genetic background: wild type) turned out to be 0.693 ± 0.026.

On to KINKNGLLENIL [IES3 C-terminal 12 aa], for which the protein stability index stood at 0.702 ± 0.019 under setting [1] and 0.7227 ± 0.0051 (genetic background: wild type).

Take KISFKWKKQRKR [UTP11 C-terminal 12 aa]: the protein stability index came out at 0.71 ± 0.01 under setting [1] and 0.655 ± 0.015 (genetic background: wild type).

Take KIYMANAPPPPV [VPS54 C-terminal 12 aa]: the protein stability index runs as follows: under setting [1], 0.706 ± 0.013; (genetic background: wild type) 0.668 ± 0.02.

For KKFIYQQLDMFS [YOL024W C-terminal 12 aa], the protein stability index by setting is: under setting [1], 0.7181 ± 0.0053; (genetic background: wild type) 0.7 ± 0.024.

For the sequence KKGLTRSVKFKN [SAS10 C-terminal 12 aa], the protein stability index is, setting by setting: under setting [1], 0.708 ± 0.044; (genetic background: wild type) 0.667 ± 0.017.

On to KKHDWSDISQLW [OSH3 C-terminal 12 aa], for which the protein stability index runs as follows: under setting [1], 0.7283 ± 0.0011; (genetic background: wild type) 0.728 ± 0.016.

For KKKSQNKSRKDD [PBR1 C-terminal 12 aa], the protein stability index is 0.7005 ± 0.0067 under setting [1] and 0.691 ± 0.069 (genetic background: wild type).

In the case of KKLAKSGIEFKW [NOP15 C-terminal 12 aa], the protein stability index stood at 0.704 ± 0.018 under setting [1] and 0.684 ± 0.063 (genetic background: wild type).

Regarding KKTAIDKLITLL [AIM18 C-terminal 12 aa], the protein stability index runs as follows: under setting [1], 0.681 ± 0.019; (genetic background: wild type) 0.342 ± 0.017.

With KLKRAKRKGISE [IMP21 C-terminal 12 aa], the protein stability index amounted to 0.693 ± 0.013 under setting [1] and 0.692 ± 0.012 (genetic background: wild type).

As for KLRAKRLAKGGR [RPG1 C-terminal 12 aa], the protein stability index is, setting by setting: under setting [1], 0.696 ± 0.012; (genetic background: wild type) 0.705 ± 0.011.

For the sequence KNFRNQYSLHPP [YHR095W C-terminal 12 aa], the protein stability index came out at 0.7047 ± 0.0045 under setting [1] and 0.6752 ± 0.0034 (genetic background: wild type).

On to KNRRGNRSGYRR [THO1 C-terminal 12 aa], for which the protein stability index runs as follows: under setting [1], 0.703 ± 0.0025; (genetic background: wild type) 0.689 ± 0.024.

For KPIETVFDEETV [YIP3 C-terminal 12 aa], the protein stability index under setting [1] was 0.697 ± 0.018 and the protein stability index (genetic background: wild type) amounted to 0.72 ± 0.041.

The record behind these values is the supplement of paper PMC10724198.
